# Reference: patent US20250197473A1
# Where two headings read alike, the source gives them in different places.
# Assays:
# Test in all cases: ELISA
# CTLA-4 [1] = target: CTLA-4
# PD-1 [2] = target: PD-1
# CTLA-4 [3] = target: CTLA-4; remark: listed apart in the source
# PD-1 [4] = target: PD-1; remark: listed apart in the source
CLTA-4 Relative Binding (CTLA-4 [1]),PD-1 Relative Binding (PD-1 [2]),CLTA-4 Relative Binding (CTLA-4 [3]),PD-1 Relative Binding (PD-1 [4]),Substance
0.008,1.77,–,–,PD-L2 domain only plus Fc construct (Fc fusion)
1.65,3.37,0.266,0.088,"PD-L2/B7.1 Dual Checkpoint (dual checkpoint inhibitor composition comprising, from the N-terminus to the C-terminus, a PD-L2 domain linked to a B7.1 domain plus a Fc domain) (Fc fusion)"
–,–,0.548,0,B7.1/PD-L2 composition (a B7.1 domain linked to a PD-L2 domain plus an Fc domain) (Fc fusion)
3.26,0.004,0.236,0,B7.1 domain only plus Fc construct (Fc fusion)
